Laboratory results published in PMC8034861.

Molecular target: Alexa Fluor 488-PR30 peptide (human)
Assay: single-molecule TIRF motility assay, co-transport of peptide foci with motors; 1 μM fluorescent PR30 with KIF5B::GFP or TMR-dynein-dynactin-BICD2N on immobilised microtubules; motility buffer with 25 mM KCl, α-casein, 5 mM MgATP; 23 ± 1°C; foci of PR30 moving with processive motors scored on kymographs

Chain of Alexa Fluor 488-PR30 peptide (human) (peptide, as listed by the source): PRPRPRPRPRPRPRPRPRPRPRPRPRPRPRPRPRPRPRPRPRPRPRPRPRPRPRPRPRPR

percent of processive motor complexes transporting large foci of PR30: 8.1%
Substance: TMR-dynein-dynactin-BICD2N complex (from UniProt Q14204 1-4646; A0A287B8J2 1-1281)
